# Measurements published in the Human Domainome abundance scans (Beltran et al. 2025).
# ± gives the uncertainty stated by the source.
# B1: Retinoic acid receptor RXR-alpha, residues 132 to 208; numbered along this chain, P19793 (parent)
# chain: KHICAICGDRSSGKHYGVYSCEGCKGFFKRTVRKDLTYTCRDNKDCLIDKRQRNRCQYCRYQKCLAMGMKREAVQEE
# Variants of: B1
# Test: abundance fitness (aPCA) (normalised: wild type 0, dead -1); higher = more abundant; growth selection in yeast, the domain comes from the species named
# Details: Homo sapiens
row,Variant,abundance fitness
1,KHICAICGDRSSGKHYGVYSCEGCKGFFKRTRRKDLTYTCRDNKDCLIDKRQRNRCQYCRYQKCLAMGMKREAVQEE [V32R],-0.171 ± 0.026
2,KHICAICGDRSSGKHYGVYSCEGCKGFFKRTSRKDLTYTCRDNKDCLIDKRQRNRCQYCRYQKCLAMGMKREAVQEE [V32S],-0.085 ± 0.026
3,KHICAICGDRSSGKHYGVYSCEGCKGFFKRTTRKDLTYTCRDNKDCLIDKRQRNRCQYCRYQKCLAMGMKREAVQEE [V32T],0.024 ± 0.029
4,KHICAICGDRSSGKHYGVYSCEGCKGFFKRTWRKDLTYTCRDNKDCLIDKRQRNRCQYCRYQKCLAMGMKREAVQEE [V32W],-0.211 ± 0.037
5,KHICAICGDRSSGKHYGVYSCEGCKGFFKRTYRKDLTYTCRDNKDCLIDKRQRNRCQYCRYQKCLAMGMKREAVQEE [V32Y],-0.079 ± 0.035
6,KHICAICGDRSSGKHYGVYSCEGCKGFFKRTVAKDLTYTCRDNKDCLIDKRQRNRCQYCRYQKCLAMGMKREAVQEE [R33A],0.038 ± 0.035
7,KHICAICGDRSSGKHYGVYSCEGCKGFFKRTVCKDLTYTCRDNKDCLIDKRQRNRCQYCRYQKCLAMGMKREAVQEE [R33C],-0.287 ± 0.04
8,KHICAICGDRSSGKHYGVYSCEGCKGFFKRTVDKDLTYTCRDNKDCLIDKRQRNRCQYCRYQKCLAMGMKREAVQEE [R33D],-0.005 ± 0.04
9,KHICAICGDRSSGKHYGVYSCEGCKGFFKRTVEKDLTYTCRDNKDCLIDKRQRNRCQYCRYQKCLAMGMKREAVQEE [R33E],0.044 ± 0.044
10,KHICAICGDRSSGKHYGVYSCEGCKGFFKRTVFKDLTYTCRDNKDCLIDKRQRNRCQYCRYQKCLAMGMKREAVQEE [R33F],-0.033 ± 0.034
11,KHICAICGDRSSGKHYGVYSCEGCKGFFKRTVGKDLTYTCRDNKDCLIDKRQRNRCQYCRYQKCLAMGMKREAVQEE [R33G],-0.014 ± 0.031
12,KHICAICGDRSSGKHYGVYSCEGCKGFFKRTVIKDLTYTCRDNKDCLIDKRQRNRCQYCRYQKCLAMGMKREAVQEE [R33I],0.004 ± 0.034
13,KHICAICGDRSSGKHYGVYSCEGCKGFFKRTVKKDLTYTCRDNKDCLIDKRQRNRCQYCRYQKCLAMGMKREAVQEE [R33K],0.05 ± 0.041
14,KHICAICGDRSSGKHYGVYSCEGCKGFFKRTVLKDLTYTCRDNKDCLIDKRQRNRCQYCRYQKCLAMGMKREAVQEE [R33L],-0.096 ± 0.028
15,KHICAICGDRSSGKHYGVYSCEGCKGFFKRTVMKDLTYTCRDNKDCLIDKRQRNRCQYCRYQKCLAMGMKREAVQEE [R33M],-0.003 ± 0.039
16,KHICAICGDRSSGKHYGVYSCEGCKGFFKRTVNKDLTYTCRDNKDCLIDKRQRNRCQYCRYQKCLAMGMKREAVQEE [R33N],-0.017 ± 0.035
17,KHICAICGDRSSGKHYGVYSCEGCKGFFKRTVPKDLTYTCRDNKDCLIDKRQRNRCQYCRYQKCLAMGMKREAVQEE [R33P],-0.143 ± 0.034
18,KHICAICGDRSSGKHYGVYSCEGCKGFFKRTVSKDLTYTCRDNKDCLIDKRQRNRCQYCRYQKCLAMGMKREAVQEE [R33S],-0.074 ± 0.028
19,KHICAICGDRSSGKHYGVYSCEGCKGFFKRTVTKDLTYTCRDNKDCLIDKRQRNRCQYCRYQKCLAMGMKREAVQEE [R33T],-0.012 ± 0.032
20,KHICAICGDRSSGKHYGVYSCEGCKGFFKRTVVKDLTYTCRDNKDCLIDKRQRNRCQYCRYQKCLAMGMKREAVQEE [R33V],0.018 ± 0.029
21,KHICAICGDRSSGKHYGVYSCEGCKGFFKRTVWKDLTYTCRDNKDCLIDKRQRNRCQYCRYQKCLAMGMKREAVQEE [R33W],-0.002 ± 0.043
22,KHICAICGDRSSGKHYGVYSCEGCKGFFKRTVYKDLTYTCRDNKDCLIDKRQRNRCQYCRYQKCLAMGMKREAVQEE [R33Y],-0.158 ± 0.042
23,KHICAICGDRSSGKHYGVYSCEGCKGFFKRTVRKGLTYTCRDNKDCLIDKRQRNRCQYCRYQKCLAMGMKREAVQEE [D35G],-0.028 ± 0.25
24,KHICAICGDRSSGKHYGVYSCEGCKGFFKRTVRKNLTYTCRDNKDCLIDKRQRNRCQYCRYQKCLAMGMKREAVQEE [D35N],-0.164 ± 0.12

row,Variant,abundance fitness
1,KHICAICGDRSSGKHYGVYSCEGCKGFFKRTVRKYLTYTCRDNKDCLIDKRQRNRCQYCRYQKCLAMGMKREAVQEE [D35Y],-0.131 ± 0.21
2,KHICAICGDRSSGKHYGVYSCEGCKGFFKRTVRKDATYTCRDNKDCLIDKRQRNRCQYCRYQKCLAMGMKREAVQEE [L36A],0.031 ± 0.04
3,KHICAICGDRSSGKHYGVYSCEGCKGFFKRTVRKDCTYTCRDNKDCLIDKRQRNRCQYCRYQKCLAMGMKREAVQEE [L36C],0.087 ± 0.053
4,KHICAICGDRSSGKHYGVYSCEGCKGFFKRTVRKDDTYTCRDNKDCLIDKRQRNRCQYCRYQKCLAMGMKREAVQEE [L36D],0.053 ± 0.046
5,KHICAICGDRSSGKHYGVYSCEGCKGFFKRTVRKDETYTCRDNKDCLIDKRQRNRCQYCRYQKCLAMGMKREAVQEE [L36E],0.021 ± 0.039
6,KHICAICGDRSSGKHYGVYSCEGCKGFFKRTVRKDFTYTCRDNKDCLIDKRQRNRCQYCRYQKCLAMGMKREAVQEE [L36F],0.046 ± 0.057
7,KHICAICGDRSSGKHYGVYSCEGCKGFFKRTVRKDGTYTCRDNKDCLIDKRQRNRCQYCRYQKCLAMGMKREAVQEE [L36G],0.022 ± 0.026
8,KHICAICGDRSSGKHYGVYSCEGCKGFFKRTVRKDHTYTCRDNKDCLIDKRQRNRCQYCRYQKCLAMGMKREAVQEE [L36H],0.014 ± 0.06
9,KHICAICGDRSSGKHYGVYSCEGCKGFFKRTVRKDKTYTCRDNKDCLIDKRQRNRCQYCRYQKCLAMGMKREAVQEE [L36K],-0.018 ± 0.052
10,KHICAICGDRSSGKHYGVYSCEGCKGFFKRTVRKDMTYTCRDNKDCLIDKRQRNRCQYCRYQKCLAMGMKREAVQEE [L36M],-0.061 ± 0.043
11,KHICAICGDRSSGKHYGVYSCEGCKGFFKRTVRKDNTYTCRDNKDCLIDKRQRNRCQYCRYQKCLAMGMKREAVQEE [L36N],-0.024 ± 0.075
12,KHICAICGDRSSGKHYGVYSCEGCKGFFKRTVRKDPTYTCRDNKDCLIDKRQRNRCQYCRYQKCLAMGMKREAVQEE [L36P],-0.067 ± 0.059
13,KHICAICGDRSSGKHYGVYSCEGCKGFFKRTVRKDQTYTCRDNKDCLIDKRQRNRCQYCRYQKCLAMGMKREAVQEE [L36Q],0.005 ± 0.051
14,KHICAICGDRSSGKHYGVYSCEGCKGFFKRTVRKDRTYTCRDNKDCLIDKRQRNRCQYCRYQKCLAMGMKREAVQEE [L36R],0.008 ± 0.03
15,KHICAICGDRSSGKHYGVYSCEGCKGFFKRTVRKDTTYTCRDNKDCLIDKRQRNRCQYCRYQKCLAMGMKREAVQEE [L36T],-0.028 ± 0.049
16,KHICAICGDRSSGKHYGVYSCEGCKGFFKRTVRKDVTYTCRDNKDCLIDKRQRNRCQYCRYQKCLAMGMKREAVQEE [L36V],0.009 ± 0.032
17,KHICAICGDRSSGKHYGVYSCEGCKGFFKRTVRKDWTYTCRDNKDCLIDKRQRNRCQYCRYQKCLAMGMKREAVQEE [L36W],-0.028 ± 0.037
18,KHICAICGDRSSGKHYGVYSCEGCKGFFKRTVRKDYTYTCRDNKDCLIDKRQRNRCQYCRYQKCLAMGMKREAVQEE [L36Y],-0.055 ± 0.073
19,KHICAICGDRSSGKHYGVYSCEGCKGFFKRTVRKDLAYTCRDNKDCLIDKRQRNRCQYCRYQKCLAMGMKREAVQEE [T37A],0.026 ± 0.037
20,KHICAICGDRSSGKHYGVYSCEGCKGFFKRTVRKDLCYTCRDNKDCLIDKRQRNRCQYCRYQKCLAMGMKREAVQEE [T37C],0.074 ± 0.051
21,KHICAICGDRSSGKHYGVYSCEGCKGFFKRTVRKDLDYTCRDNKDCLIDKRQRNRCQYCRYQKCLAMGMKREAVQEE [T37D],0.082 ± 0.058
22,KHICAICGDRSSGKHYGVYSCEGCKGFFKRTVRKDLEYTCRDNKDCLIDKRQRNRCQYCRYQKCLAMGMKREAVQEE [T37E],0.052 ± 0.035
23,KHICAICGDRSSGKHYGVYSCEGCKGFFKRTVRKDLFYTCRDNKDCLIDKRQRNRCQYCRYQKCLAMGMKREAVQEE [T37F],-0.046 ± 0.067
24,KHICAICGDRSSGKHYGVYSCEGCKGFFKRTVRKDLGYTCRDNKDCLIDKRQRNRCQYCRYQKCLAMGMKREAVQEE [T37G],0.047 ± 0.026

row,Variant,abundance fitness
1,KHICAICGDRSSGKHYGVYSCEGCKGFFKRTVRKDLHYTCRDNKDCLIDKRQRNRCQYCRYQKCLAMGMKREAVQEE [T37H],0.053 ± 0.052
2,KHICAICGDRSSGKHYGVYSCEGCKGFFKRTVRKDLIYTCRDNKDCLIDKRQRNRCQYCRYQKCLAMGMKREAVQEE [T37I],-0.016 ± 0.064
3,KHICAICGDRSSGKHYGVYSCEGCKGFFKRTVRKDLKYTCRDNKDCLIDKRQRNRCQYCRYQKCLAMGMKREAVQEE [T37K],0.066 ± 0.041
4,KHICAICGDRSSGKHYGVYSCEGCKGFFKRTVRKDLLYTCRDNKDCLIDKRQRNRCQYCRYQKCLAMGMKREAVQEE [T37L],-0.05 ± 0.034
5,KHICAICGDRSSGKHYGVYSCEGCKGFFKRTVRKDLMYTCRDNKDCLIDKRQRNRCQYCRYQKCLAMGMKREAVQEE [T37M],-0.147 ± 0.049
6,KHICAICGDRSSGKHYGVYSCEGCKGFFKRTVRKDLNYTCRDNKDCLIDKRQRNRCQYCRYQKCLAMGMKREAVQEE [T37N],0.001 ± 0.058
7,KHICAICGDRSSGKHYGVYSCEGCKGFFKRTVRKDLPYTCRDNKDCLIDKRQRNRCQYCRYQKCLAMGMKREAVQEE [T37P],0.064 ± 0.056
8,KHICAICGDRSSGKHYGVYSCEGCKGFFKRTVRKDLQYTCRDNKDCLIDKRQRNRCQYCRYQKCLAMGMKREAVQEE [T37Q],0.059 ± 0.049
9,KHICAICGDRSSGKHYGVYSCEGCKGFFKRTVRKDLRYTCRDNKDCLIDKRQRNRCQYCRYQKCLAMGMKREAVQEE [T37R],-0.039 ± 0.028
10,KHICAICGDRSSGKHYGVYSCEGCKGFFKRTVRKDLSYTCRDNKDCLIDKRQRNRCQYCRYQKCLAMGMKREAVQEE [T37S],-0.025 ± 0.035
11,KHICAICGDRSSGKHYGVYSCEGCKGFFKRTVRKDLVYTCRDNKDCLIDKRQRNRCQYCRYQKCLAMGMKREAVQEE [T37V],0.035 ± 0.033
12,KHICAICGDRSSGKHYGVYSCEGCKGFFKRTVRKDLWYTCRDNKDCLIDKRQRNRCQYCRYQKCLAMGMKREAVQEE [T37W],-0.051 ± 0.041
13,KHICAICGDRSSGKHYGVYSCEGCKGFFKRTVRKDLYYTCRDNKDCLIDKRQRNRCQYCRYQKCLAMGMKREAVQEE [T37Y],-0.082 ± 0.066
14,KHICAICGDRSSGKHYGVYSCEGCKGFFKRTVRKDLTATCRDNKDCLIDKRQRNRCQYCRYQKCLAMGMKREAVQEE [Y38A],-0.061 ± 0.035
15,KHICAICGDRSSGKHYGVYSCEGCKGFFKRTVRKDLTCTCRDNKDCLIDKRQRNRCQYCRYQKCLAMGMKREAVQEE [Y38C],-0.353 ± 0.061
16,KHICAICGDRSSGKHYGVYSCEGCKGFFKRTVRKDLTDTCRDNKDCLIDKRQRNRCQYCRYQKCLAMGMKREAVQEE [Y38D],-0.115 ± 0.054
17,KHICAICGDRSSGKHYGVYSCEGCKGFFKRTVRKDLTETCRDNKDCLIDKRQRNRCQYCRYQKCLAMGMKREAVQEE [Y38E],-0.063 ± 0.04
18,KHICAICGDRSSGKHYGVYSCEGCKGFFKRTVRKDLTFTCRDNKDCLIDKRQRNRCQYCRYQKCLAMGMKREAVQEE [Y38F],0.078 ± 0.071
19,KHICAICGDRSSGKHYGVYSCEGCKGFFKRTVRKDLTHTCRDNKDCLIDKRQRNRCQYCRYQKCLAMGMKREAVQEE [Y38H],0.027 ± 0.071
20,KHICAICGDRSSGKHYGVYSCEGCKGFFKRTVRKDLTITCRDNKDCLIDKRQRNRCQYCRYQKCLAMGMKREAVQEE [Y38I],-0.041 ± 0.067
21,KHICAICGDRSSGKHYGVYSCEGCKGFFKRTVRKDLTLTCRDNKDCLIDKRQRNRCQYCRYQKCLAMGMKREAVQEE [Y38L],0.012 ± 0.036
22,KHICAICGDRSSGKHYGVYSCEGCKGFFKRTVRKDLTNTCRDNKDCLIDKRQRNRCQYCRYQKCLAMGMKREAVQEE [Y38N],-0.101 ± 0.065
23,KHICAICGDRSSGKHYGVYSCEGCKGFFKRTVRKDLTPTCRDNKDCLIDKRQRNRCQYCRYQKCLAMGMKREAVQEE [Y38P],0.04 ± 0.05
